From patent US20120178701A1
Bridge positions count the residues as written; N and C are the ends. Square brackets hold non-standard residues; d marks the D form. Primed or numbered codes have the meaning given here. * marks the point of attachment. Dap(betaPro) = diaminopropionic acid with a beta-prolyl group on the side-chain amine; Cyclopentylacetyl′ = not defined here; Cyclohexylacetyl = O=C(CC1CCCCC1)*; Orn = NCCC[C@H](N)C(=O)O; Dab = NCC[C@H](N)C(=O)O; Sar = CNCC(=O)O

B1: Ac-Arg-cyclo(hGlu-Dab-D-Phe-Arg-Trp-Dab)-OH (peptide)
peptide: RXXFRWX
modifications: N-acetyl; X2 = hGlu; X3 = Dab; D-Phe 4; X7 = Dab; side-chain lactam hGlu2-Dab7; C-terminal free acid (-OH)
B2: Ac-Arg-cyclo(Dab-Dab-D-Phe-Arg-Trp-hGlu)-OH (peptide)
peptide: RXXFRWX
modifications: N-acetyl; X2 = Dab; X3 = Dab; D-Phe 4; X7 = hGlu; side-chain lactam Dab2-hGlu7; C-terminal free acid (-OH)
B3: Ac-Arg-cyclo(Asp-Dap-D-Phe-Arg-Trp-Lys)-NH2 (peptide)
peptide: RDXFRWK
HELM: PEPTIDE1{[ac].R.D.[NC[C@H](N[*:1])C(=O)[*:2]].[dF].R.W.K.[am]}$PEPTIDE1,PEPTIDE1,3:R3-8:R3$$$V2.0
SMILES: CC(=O)N[C@@H](CCCNC(=N)N)C(=O)N[C@H]1CC(=O)NCCCC[C@@H](C(N)=O)NC(=O)[C@H](Cc2c[nH]c3ccccc23)NC(=O)[C@H](CCCNC(=N)N)NC(=O)[C@@H](Cc2ccccc2)NC(=O)[C@H](CN)NC1=O
B4: Ac-Arg-cyclo(Asp-Orn-D-Phe-Arg-Trp-Lys)-NH2 (peptide)
peptide: Ac-RD[Orn][dF]RWK-NH2
modifications: lactam 2-7
B5: Ac-Arg-cyclo(Asp-Dab(Acetyl)-D-Phe-Arg-Trp-Lys)-NH2 (peptide)
peptide: RDXFRWK
HELM: PEPTIDE1{[ac].R.D.[Dab].[dF].R.W.K.[am]}|PEPTIDE2{[ac]}$PEPTIDE1,PEPTIDE2,4:R3-1:R2|PEPTIDE1,PEPTIDE1,3:R3-8:R3$$$V2.0
SMILES: CC(=O)NCC[C@@H]1NC(=O)[C@@H](NC(=O)[C@H](CCCNC(=N)N)NC(C)=O)CC(=O)NCCCC[C@@H](C(N)=O)NC(=O)[C@H](Cc2c[nH]c3ccccc23)NC(=O)[C@H](CCCNC(=N)N)NC(=O)[C@@H](Cc2ccccc2)NC1=O
B6: Ac-Arg-cyclo(Asp-Dap(betaPro)-D-Ph-Arg-Trp-Lys)-NH2 (peptide)
peptide: Ac-RD[Dap(betaPro)][dF]RWK-NH2
modifications: lactam 2-7
B7: Ac-Arg-cyclo(Asp-Dab(Glycly)-D-Phe-Arg-Trp-Lys)-NH2 (peptide)
peptide: Ac-RD[Dab](Gly)[dF]RWK-NH2
modifications: lactam 2-7
B8: Ac-Arg-cyclo(Asp-Orn(Acetyl)-D-Phe-Arg-Trp-Lys)-NH2 (peptide)
peptide: Ac-RD[Orn](Ac)[dF]RWK-NH2
modifications: lactam 2-7
B9: Cyclohexylacetyl-Arg-cyclo(Asp-Dab-D-Phe-Arg-Trp-Lys)-NH2 (peptide)
peptide: Cyclohexylacetyl-RD[Dab][dF]RWK-NH2
modifications: lactam 2-7
B10: Ac-Arg-cyclo(Asp-Sar-D-Phe-Arg-Trp-Lys)-NH2 (peptide)
peptide: Ac-RD[Sar][dF]RWK-NH2
modifications: lactam 2-7
B11: Phenylacetyl-Arg-cyclo(Asp-Dab-D-Phe-Arg-Trp-Lys)-NH2 (peptide)
peptide: Phenylacetyl-RD[Dab][dF]RWK-NH2
modifications: lactam 2-7
B12: Cyclopentylacetyl-Arg-cyclo(Asp-Dab-D-Phe-Arg-Trp-Lys)-NH2 (peptide)
peptide: {Cyclopentylacetyl′}-RD[Dab][dF]RWK-NH2
modifications: lactam 2-7
B13: Ac-Arg-cyclo(Asp-Dab-D-Phe-Arg-Trp-Lys)-NH-cyclopropyl (peptide)
peptide: RDXFRWK
HELM: PEPTIDE1{[ac].R.D.[Dab].[dF].R.W.K.[C1CC1N[*:1]]}$PEPTIDE1,PEPTIDE1,3:R3-8:R3$$$V2.0
SMILES: CC(=O)N[C@@H](CCCNC(=N)N)C(=O)N[C@H]1CC(=O)NCCCC[C@@H](C(=O)NC2CC2)NC(=O)[C@H](Cc2c[nH]c3ccccc23)NC(=O)[C@H](CCCNC(=N)N)NC(=O)[C@@H](Cc2ccccc2)NC(=O)[C@H](CCN)NC1=O
B14: Cyclohexanoyl-Arg-cyclo(Asp-Dab-D-Phe-Arg-Trp-Lys)-NH2 (peptide)
peptide: Cyclohexanoyl-RD[Dab][dF]RWK-NH2
modifications: lactam 2-7
B15: Ac-Arg-cyclo(Dab-Dab-D-Phe-Arg-Trp-hGlu)-NH2 (peptide)
peptide: RXXFRWX
modifications: N-acetyl; X2 = Dab; X3 = Dab; D-Phe 4; X7 = hGlu; side-chain lactam Dab2-hGlu7; C-terminal amide
B16: Ac-Arg-cyclo(hGlu-Dab-D-Phe-Arg-Trp-Dab)-NH2 (peptide)
peptide: RXXFRWX
modifications: N-acetyl; X2 = hGlu; X3 = Dab; D-Phe 4; X7 = Dab; side-chain lactam hGlu2-Dab7; C-terminal amide

Molecular target: human recombinant melanocortin-4 receptor (human) (UniProt P32245)
Assay: competitive inhibition of [I125]-NDP-α-MSH, hMC4-R HEK-293 membranes
Conditions: not given

human recombinant melanocortin-4 receptor (human), sequence (P32245 whole entry): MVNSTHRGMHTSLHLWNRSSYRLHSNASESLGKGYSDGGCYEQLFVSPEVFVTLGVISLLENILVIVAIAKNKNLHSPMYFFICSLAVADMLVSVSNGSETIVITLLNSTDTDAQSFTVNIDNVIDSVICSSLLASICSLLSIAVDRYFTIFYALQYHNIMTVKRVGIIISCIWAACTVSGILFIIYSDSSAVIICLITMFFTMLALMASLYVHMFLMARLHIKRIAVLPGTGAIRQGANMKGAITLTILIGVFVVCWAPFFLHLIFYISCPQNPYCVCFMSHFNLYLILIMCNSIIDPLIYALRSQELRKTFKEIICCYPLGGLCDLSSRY

Ki | Binder
45 nM | B1
35 nM | B2

Molecular target: T1, human recombinant melanocortin-4 receptor (human), P32245
Assay: competitive inhibition of Eu-NDP-α-MSH (TRF), hMC4-R HEK-293 membranes
Conditions: remark: other sources report otherwise

T1 sequence (P32245 whole entry): as above

Ki | Binder
80 nM | B3
7 nM | B4
88 nM | B5
145 nM | B6
110 nM | B7

Molecular target: T1, human recombinant melanocortin-4 …
Assay: competitive inhibition of [I125]-NDP-α-MSH, hMC4-R HEK-293 membranes
Conditions: remark: other sources report otherwise

Ki | Binder
573 nM | B8
1 nM | B9
15 nM | B10
33 nM | B5
2 nM | B11
0.8 nM | B12
3 nM | B13
0.4 nM | B14

Molecular target: human recombinant melanocortin-4 receptor (human) (UniProt P32245)
Assay: cell-based or functional assay
Conditions: not given

EC50 (cAMP) | intrinsic activity (cAMP; NDP-α-MSH = 100%) | Binder
0.065 nM | 96% | B15
0.06 nM | 98% | B16

Molecular target: human recombinant melanocortin-4 receptor (human) (UniProt P32245)
Assay: competitive inhibition of Eu-NDP-α-MSH (TRF), hMC4-R HEK-293 membranes
Conditions: not given

Ki | Binder
4 nM | B15
2 nM | B16
